Numbered stars: 1 amine (or outer) side, 2 acyl side, 3 side chain; on linkers, the order of the positions; unused ones are H or OH. Square brackets hold non-standard residues; d marks the D form. Side chains are listed from the residue outwards. Ends that are not written are not given here. * marks the point of attachment. C18 diacid = O=C(O)CCCCCCCCCCCCCCCCC(=O)*; γGlu = O=C(O)[C@H](CCC(=O)[*:2])N[*:1]; Iva = CC[C@](C)(N)C(=O)O; AEEA = NCCOCCOCC(=O)O; Aib = CC(C)(N)C(=O)O
T1: human GIP receptor (human, UniProt P48546 22-466)
T1 sequence (looked up): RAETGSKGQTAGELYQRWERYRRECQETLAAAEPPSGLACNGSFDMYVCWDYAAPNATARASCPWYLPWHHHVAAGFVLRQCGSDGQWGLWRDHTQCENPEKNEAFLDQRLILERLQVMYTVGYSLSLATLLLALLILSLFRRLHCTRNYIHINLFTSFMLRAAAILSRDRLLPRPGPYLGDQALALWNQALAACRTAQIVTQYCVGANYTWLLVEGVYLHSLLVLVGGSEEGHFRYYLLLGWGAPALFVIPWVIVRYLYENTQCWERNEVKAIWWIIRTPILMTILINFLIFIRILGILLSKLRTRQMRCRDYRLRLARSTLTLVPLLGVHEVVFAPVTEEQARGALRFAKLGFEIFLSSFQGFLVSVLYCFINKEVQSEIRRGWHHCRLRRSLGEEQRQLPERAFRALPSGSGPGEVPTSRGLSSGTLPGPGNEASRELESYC

B1: SEQ ID NO: 23 (peptide)
peptide: H-Y[Aib]EGT[Iva]ISDLSI[Aib]K([AEEA-AEEA-γGlu-C18 diacid])DRIHQ[Aib]EFIEWLLAQGPSSGAPPPS-NH2
notes: Synthetic peptide, 39 residues
B2: SEQ ID NO: 30 (peptide)
peptide: Y[Aib]EGTFISDLSI[Aib]K([AEEA-AEEA-γGlu-C18 diacid])DRIHQ[Aib]EFIEWLLAQRPSSGAPPPS-NH2
modifications: N-terminus assumed
SMILES: CC[C@H](C)[C@H](NC(=O)[C@H](CCCNC(=N)N)NC(=O)[C@H](CC(=O)O)NC(=O)[C@H](CCCCNC(=O)COCCOCCNC(=O)COCCOCCNC(=O)CC[C@H](NC(=O)CCCCCCCCCCCCCCCCC(=O)O)C(=O)O)NC(=O)C(C)(C)NC(=O)[C@@H](NC(=O)[C@H](CO)NC(=O)[C@H](CC(C)C)NC(=O)[C@H](CC(=O)O)NC(=O)[C@H](CO)NC(=O)[C@@H](NC(=O)[C@H](Cc1ccccc1)NC(=O)[C@@H](NC(=O)CNC(=O)[C@H](CCC(=O)O)NC(=O)C(C)(C)NC(=O)[C@@H](N)Cc1ccc(O)cc1)[C@@H](C)O)[C@@H](C)CC)[C@@H](C)CC)C(=O)N[C@@H](Cc1c[nH]cn1)C(=O)N[C@@H](CCC(N)=O)C(=O)NC(C)(C)C(=O)N[C@@H](CCC(=O)O)C(=O)N[C@@H](Cc1ccccc1)C(=O)N[C@H](C(=O)N[C@@H](CCC(=O)O)C(=O)N[C@@H](Cc1c[nH]c2ccccc12)C(=O)N[C@@H](CC(C)C)C(=O)N[C@@H](CC(C)C)C(=O)N[C@@H](C)C(=O)N[C@@H](CCC(N)=O)C(=O)N[C@@H](CCCNC(=N)N)C(=O)N1CCC[C@H]1C(=O)N[C@@H](CO)C(=O)N[C@@H](CO)C(=O)NCC(=O)N[C@@H](C)C(=O)N1CCC[C@H]1C(=O)N1CCC[C@H]1C(=O)N1CCC[C@H]1C(=O)N[C@@H](CO)C(N)=O)[C@@H](C)CC
notes: Synthetic peptide, 39 residues (Arg at 30)
B3: SEQ ID NO: 36 (peptide)
peptide: Y[Aib]EGTFISDLSI[Aib]LEEQK([AEEA-AEEA-γGlu-C18 diacid])Q[Aib]EFIEWLLAQGPSSGAPPPS-NH2
modifications: N-terminus assumed
SMILES: CC[C@H](C)[C@H](NC(=O)[C@H](Cc1ccccc1)NC(=O)[C@H](CCC(=O)O)NC(=O)C(C)(C)NC(=O)[C@H](CCC(N)=O)NC(=O)[C@H](CCCCNC(=O)COCCOCCNC(=O)COCCOCCNC(=O)CC[C@H](NC(=O)CCCCCCCCCCCCCCCCC(=O)O)C(=O)O)NC(=O)[C@H](CCC(N)=O)NC(=O)[C@H](CCC(=O)O)NC(=O)[C@H](CCC(=O)O)NC(=O)[C@H](CC(C)C)NC(=O)C(C)(C)NC(=O)[C@@H](NC(=O)[C@H](CO)NC(=O)[C@H](CC(C)C)NC(=O)[C@H](CC(=O)O)NC(=O)[C@H](CO)NC(=O)[C@@H](NC(=O)[C@H](Cc1ccccc1)NC(=O)[C@@H](NC(=O)CNC(=O)[C@H](CCC(=O)O)NC(=O)C(C)(C)NC(=O)[C@@H](N)Cc1ccc(O)cc1)[C@@H](C)O)[C@@H](C)CC)[C@@H](C)CC)C(=O)N[C@@H](CCC(=O)O)C(=O)N[C@@H](Cc1c[nH]c2ccccc12)C(=O)N[C@@H](CC(C)C)C(=O)N[C@@H](CC(C)C)C(=O)N[C@@H](C)C(=O)N[C@@H](CCC(N)=O)C(=O)NCC(=O)N1CCC[C@H]1C(=O)N[C@@H](CO)C(=O)N[C@@H](CO)C(=O)NCC(=O)N[C@@H](C)C(=O)N1CCC[C@H]1C(=O)N1CCC[C@H]1C(=O)N1CCC[C@H]1C(=O)N[C@@H](CO)C(N)=O
notes: as for B1
B4: SEQ ID NO: 37 (peptide)
peptide: Y[Aib]EGTFISDLSI[Aib]LDRIK([AEEA-AEEA-γGlu-C18 diacid])Q[Aib]EFIEWLLAQGPSSGAPPPS-NH2
modifications: N-terminus assumed
SMILES: CC[C@H](C)[C@H](NC(=O)[C@H](CCCNC(=N)N)NC(=O)[C@H](CC(=O)O)NC(=O)[C@H](CC(C)C)NC(=O)C(C)(C)NC(=O)[C@@H](NC(=O)[C@H](CO)NC(=O)[C@H](CC(C)C)NC(=O)[C@H](CC(=O)O)NC(=O)[C@H](CO)NC(=O)[C@@H](NC(=O)[C@H](Cc1ccccc1)NC(=O)[C@@H](NC(=O)CNC(=O)[C@H](CCC(=O)O)NC(=O)C(C)(C)NC(=O)[C@@H](N)Cc1ccc(O)cc1)[C@@H](C)O)[C@@H](C)CC)[C@@H](C)CC)C(=O)N[C@@H](CCCCNC(=O)COCCOCCNC(=O)COCCOCCNC(=O)CC[C@H](NC(=O)CCCCCCCCCCCCCCCCC(=O)O)C(=O)O)C(=O)N[C@@H](CCC(N)=O)C(=O)NC(C)(C)C(=O)N[C@@H](CCC(=O)O)C(=O)N[C@@H](Cc1ccccc1)C(=O)N[C@H](C(=O)N[C@@H](CCC(=O)O)C(=O)N[C@@H](Cc1c[nH]c2ccccc12)C(=O)N[C@@H](CC(C)C)C(=O)N[C@@H](CC(C)C)C(=O)N[C@@H](C)C(=O)N[C@@H](CCC(N)=O)C(=O)NCC(=O)N1CCC[C@H]1C(=O)N[C@@H](CO)C(=O)N[C@@H](CO)C(=O)NCC(=O)N[C@@H](C)C(=O)N1CCC[C@H]1C(=O)N1CCC[C@H]1C(=O)N1CCC[C@H]1C(=O)N[C@@H](CO)C(N)=O)[C@@H](C)CC
notes: as for B1
B5: SEQ ID NO: 22 (peptide)
peptide: Y[Aib]EGTFISDLSI[Aib]K([AEEA-AEEA-γGlu-C18 diacid])DR[Aib]HQ[Aib]EFIEWLLAQRPSSGAPPPS-NH2
modifications: N-terminus assumed
SMILES: CC[C@H](C)[C@H](NC(=O)[C@H](Cc1ccccc1)NC(=O)[C@H](CCC(=O)O)NC(=O)C(C)(C)NC(=O)[C@H](CCC(N)=O)NC(=O)[C@H](Cc1c[nH]cn1)NC(=O)C(C)(C)NC(=O)[C@H](CCCNC(=N)N)NC(=O)[C@H](CC(=O)O)NC(=O)[C@H](CCCCNC(=O)COCCOCCNC(=O)COCCOCCNC(=O)CC[C@H](NC(=O)CCCCCCCCCCCCCCCCC(=O)O)C(=O)O)NC(=O)C(C)(C)NC(=O)[C@@H](NC(=O)[C@H](CO)NC(=O)[C@H](CC(C)C)NC(=O)[C@H](CC(=O)O)NC(=O)[C@H](CO)NC(=O)[C@@H](NC(=O)[C@H](Cc1ccccc1)NC(=O)[C@@H](NC(=O)CNC(=O)[C@H](CCC(=O)O)NC(=O)C(C)(C)NC(=O)[C@@H](N)Cc1ccc(O)cc1)[C@@H](C)O)[C@@H](C)CC)[C@@H](C)CC)C(=O)N[C@@H](CCC(=O)O)C(=O)N[C@@H](Cc1c[nH]c2ccccc12)C(=O)N[C@@H](CC(C)C)C(=O)N[C@@H](CC(C)C)C(=O)N[C@@H](C)C(=O)N[C@@H](CCC(N)=O)C(=O)N[C@@H](CCCNC(=N)N)C(=O)N1CCC[C@H]1C(=O)N[C@@H](CO)C(=O)N[C@@H](CO)C(=O)NCC(=O)N[C@@H](C)C(=O)N1CCC[C@H]1C(=O)N1CCC[C@H]1C(=O)N1CCC[C@H]1C(=O)N[C@@H](CO)C(N)=O
notes: as for B1

These binders were tested against T1, human GIP receptor (assay: cell-based or functional assay).

| Binder | EC50 hGIPR 0% HSA (cAMP, HEK-293) [nM] | EC50 hGIPR 0.1% BSA (cAMP, HEK-293) [nM] |
| --- | --- | --- |
| B1 | 0.00027 | 0.0177 |
| B2 | 0.00048 | 0.011 |
| B3 | 0.00012 | 0.0288 |
| B4 | 0.00015 | 0.0201 |
| B5 | 0.00016 | 0.00666 |

The binders below were run against T2, human GLP-1 receptor (human, UniProt P43220 24-463) (assay: cell-based or functional assay).

| Binder | EC50 hGLP-1R 0.1% BSA (cAMP, HEK-293) [nM] |
| --- | --- |
| B1 | > 10 |
| B2 | > 10 |
| B3 | > 10 |
| B4 | > 10 |
| B5 | > 10 |

Target: T1, human GIP receptor
Test: cell-based or functional assay
Remark: another data set of the same source

| Binder | hGIPR EC50 (cAMP, human adipocytes) [nM] | hGIPR Emax (cAMP, human adipocytes) [%] |
| --- | --- | --- |
| B1 | 0.2 | 91 |
| B2 | 0.5 | 138 |
| B3 | 0.3 | 104 |
| B4 | 0.5 | 113 |
| B5 | 0.6 | 98 |

Each binder was assayed against T2, human GLP-1 receptor (assay: displacement of [125I]GLP-1 from HEK-293 membranes expressing hGLP-1R (SPA beads)).

| Binder | IC50 [nM] |
| --- | --- |
| B1 | 259 |
| B2 | 151 |
| B3 | 115 |
| B4 | 41 |
| B5 | 221 |

— patent US20240360194A1, “New Peptides as Potent and Selective GIP Receptor Agonists” (Sanofi, priority 2021, published 2024)
